Experimental data as given in the supplement of paper PMC10567573.

B1: INTS3 (parent)
chain: AQLQALRQKEVDFCISLLRERFME

Variants of: B1
Assay: protein stability index of a GFP-peptide fusion (GPS, HEK-293T) (PSI 1-6); higher = more stable
Settings: c terminus: a fixed tail appended
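Also: lentivirally expressed fusions sorted by FACS into six bins by GFP to DsRed ratio, PSI derived from sequencing read proportions per bin multiplied by bin number.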

Row | Variant | protein stability index
1 | AQLQALRQKEVDFCISLLEERFME [R19E] | 1
2 | AQLQALRQKEVDFCISLLSERFME [R19S] | 3.43
3 | AQLQALRQKEVDFCISLLDERFME [R19D] | 1.57
4 | AQLQALTQKEVDFCISLLRERFME [R7T] | 3.43
5 | AQLQALSQKEVDFCISLLRERFME [R7S] | 2.93
6 | AQLQALVQKEVDFCISLLRERFME [R7V] | 1.74
7 | AQLQALYQKEVDFCISLLRERFME [R7Y] | 3.17
8 | AQLMALRQKEVDFCISLLRERFME [Q4M] | 2.55
9 | AQLPALRQKEVDFCISLLRERFME [Q4P] | 1.5
10 | AQLVALRQKEVDFCISLLRERFME [Q4V] | 2.98
11 | AQLAALRQKEVDFCISLLRERFME [Q4A] | 3.65
12 | AQLGALRQKEVDFCISLLRERFME [Q4G] | 2.13
13 | AQLHALRQKEVDFCISLLRERFME [Q4H] | 3.32
14 | AQLNALRQKEVDFCISLLRERFME [Q4N] | 2.4
15 | AQLQALRQKEVDFCISRLRERFME [L17R] | 2.08
16 | AQLQALRQKEVDFCISVLRERFME [L17V] | 3.89
17 | AQLQALRQKEVDFCISHLRERFME [L17H] | 1.65
18 | AQLQALRQKEVDFCISTLRERFME [L17T] | 1.8
19 | AQLQALRQKEVDFCISQLRERFME [L17Q] | 2.45
20 | AQLQALRQKEVDFCISSLRERFME [L17S] | 1.22
21 | AQLQALRQKEVDFCISPLRERFME [L17P] | 2.16
22 | AQLQALRQKEVDFCISWLRERFME [L17W] | 2.46
23 | AQLQALRQKEVDFCISKLRERFME [L17K] | 2
24 | AQLQALRQKEVDFCIQLLRERFME [S16Q] | 3.15

Row | Variant | protein stability index
25 | AQLQALRQKEVDFCIMLLRERFME [S16M] | 4.38
26 | AQLQALRQKEVDFCIPLLRERFME [S16P] | 2.14
27 | AQLQALRQKEVDFCIRLLRERFME [S16R] | 3.39
28 | AQLQALRQKEVDFCIYLLRERFME [S16Y] | 3.56
29 | AQLQALRQKEVDFCIELLRERFME [S16E] | 3.24
30 | AQLQALRQKEVDFCIILLRERFME [S16I] | 2.38
31 | AQLQALRQKEVTFCISLLRERFME [D12T] | 2.66
32 | AQLQALRQKEVWFCISLLRERFME [D12W] | 3.08
33 | AQLQALRQKEVPFCISLLRERFME [D12P] | 2.05
34 | AQLQALRQKEVIFCISLLRERFME [D12I] | 1.91
35 | AQLQALRQKEVCFCISLLRERFME [D12C] | 3.46
36 | AQLQALRQKEVHFCISLLRERFME [D12H] | 3.57
37 | AQLQALRQKEVRFCISLLRERFME [D12R] | 2.19
38 | AQLQALRQKEVYFCISLLRERFME [D12Y] | 2.09
39 | AFLQALRQKEVDFCISLLRERFME [Q2F] | 2.63
40 | AHLQALRQKEVDFCISLLRERFME [Q2H] | 4.58
41 | ACLQALRQKEVDFCISLLRERFME [Q2C] | 2.98
42 | APLQALRQKEVDFCISLLRERFME [Q2P] | 2.38
43 | ANLQALRQKEVDFCISLLRERFME [Q2N] | 3.27
44 | ATLQALRQKEVDFCISLLRERFME [Q2T] | 3.02
45 | AQLQALRQKEVDFCISLLREHFME [R21H] | 2.91
46 | AQLQALRQKEVDFCISLLRELFME [R21L] | 2.34
47 | AQLQALRQKEVDFCISLLREGFME [R21G] | 2.99
48 | AQLQALRQKEVDFCISLLREDFME [R21D] | 1.14

Row | Variant | protein stability index
49 | AQLQALRQKEVDFCISLLRENFME [R21N] | 2.7
50 | AQLQALRQKEEDFCISLLRERFME [V11E] | 2.54
51 | AQLQALRQKEKDFCISLLRERFME [V11K] | 1.7
52 | AQLQALRQKEDDFCISLLRERFME [V11D] | 2.49
53 | AQLQALRQKEADFCISLLRERFME [V11A] | 2.23
54 | AQLQALRQKEPDFCISLLRERFME [V11P] | 2.7
55 | AQLQALRQKEQDFCISLLRERFME [V11Q] | 1.81
56 | AQLQALRQKECDFCISLLRERFME [V11C] | 1.29
57 | AQLQALRQKEMDFCISLLRERFME [V11M] | 3.61
58 | AQLQALRQKEVDFCISLLRERFMG [E24G] | 1.92
59 | AQLQALRQKEVDFCISLLRERFMR [E24R] | 3.34
60 | AQLQALRQKEVDFCISLLRERFMM [E24M] | 4.47
61 | AQLQALRQKEVDFCISLLRERFMN [E24N] | 2.72
62 | AQLQALRQKEVDFCISLLRERFMI [E24I] | 2.7
63 | AQLQALRQKEVDFCISLLRERFMP [E24P] | 1.31
64 | AQLQALRQKEVDFCISLLRKRFME [E20K] | 2.09
65 | AQLQALRQKEVDFCISLLRRRFME [E20R] | 2.49
66 | AQLQALRQKEVDFCISLLRGRFME [E20G] | 3.34
67 | AQLQALRQKEVDFCISLLRLRFME [E20L] | 2.34
68 | AQLQALRQKEVDFCISLLRDRFME [E20D] | 2.65
69 | WQLQALRQKEVDFCISLLRERFME [A1W] | 2.49
70 | IQLQALRQKEVDFCISLLRERFME [A1I] | 2.43
71 | EQLQALRQKEVDFCISLLRERFME [A1E] | 2.65
72 | MQLQALRQKEVDFCISLLRERFME [A1M] | 2.4

Row | Variant | protein stability index
73 | RQLQALRQKEVDFCISLLRERFME [A1R] | 2.08
74 | VQLQALRQKEVDFCISLLRERFME [A1V] | 2.85
75 | QQLQALRQKEVDFCISLLRERFME [A1Q] | 2.43
76 | NQLQALRQKEVDFCISLLRERFME [A1N] | 2.73
77 | KQLQALRQKEVDFCISLLRERFME [A1K] | 2.62
78 | AQLQLLRQKEVDFCISLLRERFME [A5L] | 3.11
79 | AQLQDLRQKEVDFCISLLRERFME [A5D] | 2.68
80 | AQLQHLRQKEVDFCISLLRERFME [A5H] | 2.44
81 | AQLQNLRQKEVDFCISLLRERFME [A5N] | 2.61
82 | AQLQKLRQKEVDFCISLLRERFME [A5K] | 1.92
83 | AQLQTLRQKEVDFCISLLRERFME [A5T] | 1.65
84 | AQLQVLRQKEVDFCISLLRERFME [A5V] | 1.04
85 | AQLQFLRQKEVDFCISLLRERFME [A5F] | 4.25
86 | AQLQRLRQKEVDFCISLLRERFME [A5R] | 2.15
87 | AQLQALRQKEVDFIISLLRERFME [C14I] | 2.68
88 | AQLQALRQKEVDFSISLLRERFME [C14S] | 2.02
89 | AQLQALRQKEVDFWISLLRERFME [C14W] | 1.96
90 | AQLQALRQKEVDFGISLLRERFME [C14G] | 1.84
91 | AQLQALRQKEVDFLISLLRERFME [C14L] | 2.93
92 | AQLQALRQKEVDFKISLLRERFME [C14K] | 1.93
93 | AQLQALRQKEVDFPISLLRERFME [C14P] | 2.03
94 | AQLQALRQKEVDFHISLLRERFME [C14H] | 1.94
